According to publication PMC2816707:

What was measured:
Bevacizumab = assay: ELISA; details: point at the highest antibody concentration, about 13.3 nM (read from x axis); VEGF captured on ELISA plate; parent: est. 0.86; read off a plot
humanized EBV321 = assay: ELISA; details: point at the highest antibody concentration, about 13.3 nM (read from x axis); VEGF captured on ELISA plate; parent: est. 0.66; read off a plot
[1] = biological target: Recombinant human VEGF165 (human) (UniProt P15692); assay: ELISA; inhibition of VEGF/VEGFR-2 interaction
Chain of Recombinant human VEGF165 (human) (P15692 other isoform, or with tags, fused parts or gaps): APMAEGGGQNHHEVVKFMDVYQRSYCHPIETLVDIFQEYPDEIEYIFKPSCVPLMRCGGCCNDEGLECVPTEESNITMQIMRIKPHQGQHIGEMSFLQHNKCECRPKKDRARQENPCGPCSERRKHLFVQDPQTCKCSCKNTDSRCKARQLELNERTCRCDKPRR

Chain of rabbit IgG Fc-hVEGF (human VEGF165) fusion protein, wild type (from UniProt P15692-4) G88A (P15692 whole entry, looked up, stated change not applied, the tested form may be a part): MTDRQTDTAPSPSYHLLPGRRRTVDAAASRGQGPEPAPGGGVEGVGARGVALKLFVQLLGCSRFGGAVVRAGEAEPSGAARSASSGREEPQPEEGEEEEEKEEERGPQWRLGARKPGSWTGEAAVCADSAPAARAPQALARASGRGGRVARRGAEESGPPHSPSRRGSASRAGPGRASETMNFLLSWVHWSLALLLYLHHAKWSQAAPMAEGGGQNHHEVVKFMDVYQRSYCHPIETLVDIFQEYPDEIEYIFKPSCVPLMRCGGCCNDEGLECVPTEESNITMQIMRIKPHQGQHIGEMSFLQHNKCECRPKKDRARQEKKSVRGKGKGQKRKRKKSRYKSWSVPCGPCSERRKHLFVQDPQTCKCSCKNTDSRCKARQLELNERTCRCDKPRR
Chain of rabbit IgG Fc-hVEGF (human VEGF165) fusion protein, wild type (from UniProt P15692-4) G88A; Q89A (P15692 whole entry, looked up, stated change not applied, the tested form may be a part): as above
Chain of rabbit IgG Fc-hVEGF (human VEGF165) fusion protein, wild type (from UniProt P15692-4) I46A (P15692 whole entry, looked up, stated change not applied, the tested form may be a part): as above

Substance	response (Bevacizumab)	response (humanized EBV321)	IC50 [1] [nM]
rabbit IgG Fc-hVEGF (human VEGF165) fusion protein, wild type (from UniProt P15692-4) G88A; Q89A	0.13 OD (405nm)	0.76 OD (405nm)	
rabbit IgG Fc-hVEGF (human VEGF165) fusion protein, wild type (from UniProt P15692-4) I46A	0.88 OD (405nm)		
Bevacizumab			0.893
rabbit IgG Fc-hVEGF (human VEGF165) fusion protein, wild type (from UniProt P15692-4) G88A	0.57 OD (405nm)		
